We go through two substances from patent US20020173462A1.

For one assay, the target named is human fibrinogen (human) (UniProt P02671). Put plainly: affinity blot, dilution series of antigen and fibrinogen.
For assay [1], the target named is human prothrombin (human) (UniProt P00734). Briefly: affinity blot, dilution series of antigen and prothrombin.

For “60 kDa fibrinogen-binding protein (Eap, extracellular adherence protein)”, the amount of protein detected with 10 ng/ml of fibrinogen with human fibrinogen (human) is 0.1 ng. In assay [1], the amount of protein detected with 10 ng/ml of prothrombin came to 0.1 ng.

In turn, “87 kDa fibrinogen-binding protein (coagulase)” came in with an amount of protein detected with 10 ng/ml of fibrinogen with human fibrinogen (human) of 0.1 ng.
